Measurements: the nanobody polyreactivity screen of Harvey et al. (2022)

Assay: yeast display, Sf9 membrane polyspecificity reagent, FACS + sequencing; frameworks hold sequencing errors
How it was run: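 Galactose-induced (36–48 hours) yeast carrying a synthetic nanobody display library were exposed to 10% biotinylated, detergent-solubilized Sf9 membrane reagent at 4 °C for 1 hour. FACS followed streptavidin microbead enrichment, using low and high (top ~1%) gates for expression (anti-HA) and reagent binding (streptavidin). Colony PCR, MiSeq 2 × 250 sequencing and CDR-length filtering followed. Labels for polyreactivity reflect the gate of origin.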

Sequence	polyreactivity (PSR sort gate)
QVQLVESAAGLVQAGGSLRLSCAASGRTFQYNAIGWYRQAPGKETELVAAISSSGGSTYYADSVKGRFTISRDNAKNTVYLQLNSLKPEDTAVYYCNAYSQSWNFYGDGDYWGQGTQVTVSS	low polyreactivity
QVHLVESGGGLVQAGGSLRLSCAASGFTFPHYAMGWYRQAPGKERELVAAISFSGGRTYYADSVKGRFTISRDHSKNTVYVQMNSLKPEDTAVYYCNVPYYSFRELSYYYWGQGTQVTVSS	high polyreactivity
QVQLVESGGGLVQAGGSLRLSCAASGGTFDVYAMGWYRQAPGKERELVAAISIGGSTYYADSVKGRFTISRDNAKNTVSLQMNSLKPEDTAVYYCAADVNSRYSWRRWYAYDYWGQGTQVTVSS	high polyreactivity
QVQLVESVGGLVQAGGSLRLSCAASGLIFASYAMGWYRQAPGKERELVAAISWSGGSTYYADSVKGRFTISRDYAKITVYLQMNSLKPEDTAVYYCAAIRYAYGSLDYWGQGTQVTVSS	high polyreactivity
QVQLVESGGGLVQAGGSLRLSCAASGITFISYVMGWYRQAPWKERELLAAISKRGGSTYYADSVKGRFTISRDNAKNTVYLQMNSLKPEDTAVYYCAAKTIPWSVGYDYWGQGTQVTVSS	high polyreactivity
QVQLVESGGGLVQAGGSLRLSCAASGFTFRRYAMGGYRQAPGKERELVAAISANGGSTYYADSVKGRFTISRDNAKNTVYLQMNSLKPEDTAVYYCNARKYTQSIHYDYWGQGTQVTVSS	high polyreactivity
QDQLVESGGGLVQAGGSLRITCAASGSIFSWYTMGRYRQAPGKEMELVAAISGCGSRTYYADSVKGRFTISRDIEKNTVYLQMNSLKPEDTALYYCNTVNTWSVYYAYDYWGQGTQVTVSS	high polyreactivity
QVQLVESGGGLVQAGGSLRLSCAASGSIFSDYAMGWYRQAPGKETELVAGISSGGGTTYADSVKGRFTISRDNAKNTVYLQMNSLKPEDTAVYYCNKQDQPVGRSGYPYGYDYWGQGTQVTVSS	low polyreactivity
QVQLVESGGGLVQAGGSLRLSCAASGRTFDWYVMGWYRQAPGKERELVASIPGTGSTYYADSVKGRFTISRDNAKNTVYLQMNSLKPEDTAVYYCNVAWIWGKYDYWGQGTQVTVSS	high polyreactivity
QVQLVESGGGLVQPGGSLRLSCAASGRNSTYTMGWYRQAPGKERELVATISTDASTNYADSVKGRFTISRDNAKNTVYLQMNSLKPEDTAVYYCAAVIVNQDYDYWGQGTQVTVSS	low polyreactivity
QVQLVESGGGLVQAGGSLRLSCAASGRIYFNAMGWYRQAPGKERELLADISWIGGSTYYADSVKGRFTISRDNGKNTVYLQMNRLKPEYTAVYYCAAVFLSWWDSYDFWGQGTQVTVSS	high polyreactivity
QVQLVESGGGLVQAGGSLRLSCAASGSIFYPNAMGWYRQAPGKERELVATIRRRGGSTYYADSVKGRFTISRDNAKNTVYLQMHSLKPEDTAVDYCAVGSPTPYRALDLYDYWGQGTQVTVSS	high polyreactivity
QVQLVESGGGLVQAGGSLRLCCAASGSTFYFYTMGWYRQAPGKERELVAAIRDSGSSTDYADSVKGRFTISRDNAKNTVYLQMNSLKPEATAVYYCAAEYNFPEFPWGGEYDYWGQGTQVTVSS	low polyreactivity
QVQLVESGGGLVQAGGSLRLSCAASGSTFVSSALGWSSQAPGKARELVARIRRSGGSTYYADSVKGRFTISRDNAKNTVYLQMNSLKPEDTAVYDCAAGYSRGQYRYNYWGQGTQVTVSS	high polyreactivity
QVQLVESGGGLVQAGGSLRLSCAASGRTYVVKAMGWYRQAPGKERELVAAIIRGNTYYADSVKGRFTISRDNAKNTVYLQMNSLKPEDTAVYYCAARYSPYKYYYWGQGTQVTVSS	high polyreactivity
QVQLVESGGGLVQAGGSLRLSCAASGSIFITNAMGWYRQAPGKERELVAGITSGGSTYYADSVKGRFTISRDNAKNTFYLQMNSLKPEDTAVYYCAADGVTVTADEYDYWGHGTQVTVSS	low polyreactivity
QFQLLESGGGLVHAGGSLLLSCAASGSTFVRYAMGWYRQAPAKERELVASISSSGSTYYADSVKGRFTISRDNAKNSDYLQMNSLKPEDTSVYYCAIQYGGRYGYWGQGTQVTVSS	low polyreactivity
QGQLVVSGGGLVQAGGSLRLSCAASGRTFYWNAMGWSIQAPGKERELFASINGGGSTYYADSVKGRFTISRDNAKNTVYLQMYSLKPEDTAVYYCNAESYEFHRAWGDYDDWGHGTQVTVSS	low polyreactivity
QVQLVESGGGLVQAGASLRLSCAASGSTFDYYAMGWSRQAPGKELELVDAISRGGSTNYADSVKGRFTISRDNAKNSVYLQMNILKPEDTAVYYCAAAPTYRWHDGYWGQGTQVTVSS	low polyreactivity
QVQLVESGGGLVQAGGSLRLSCAASGSTFYHYAMGWYRQAPGKERELVAAISTGGSTYYADSVKGRFTISRDNAKNTVYLQMNSLKPEDTAVEYCNARYIGGYGYWGQGTQVTVSS	low polyreactivity
QVHLVESGGGLVQAGGSLRLSCAASGSIFEENAMGWYRQAPGKERELVAVISTRDGRTYYADSVKGRFTISRDNAKNTVYLQMNSLKPEDTAVYYCAASPDPYWRRMDYWGQGTQVTVSS	high polyreactivity
QVQLVESGGGLVQAGGSLRLSCAASGITFWYYAMGWYRQAPGKERELVAVISRGGSTYYADSVKGRFTISRDNAKNTVYLQMNSLKPEDTAVYYCAARQRWYTYTRQEYDYWGQGTQVTVSS	high polyreactivity
